Laboratory results from patent publication US20220365100A1 (Janssen / Centocor, published 2022).
Changes are numbered by the printed parent chain. Each block holds one binder with its values, some of them ahead of it.

Tests used:
[1] = biological target: T1, recombinant IL-17 (human IL-17, interleukin 17A) (human, UniProt Q16552 24-155); assay: competition in sandwich ELISA: IL-17A mixed with 10ug/ml modulator, free IL-17A detected with DuoSet DY317 (MAB317 capture, BAF317 detection)
T1 construct: Serial dilutions of recombinant IL-17 from 1 ng/ml in ELISA; also called IL-17A; CTLA8
T1 sequence (Q16552 24-155 limits assumed): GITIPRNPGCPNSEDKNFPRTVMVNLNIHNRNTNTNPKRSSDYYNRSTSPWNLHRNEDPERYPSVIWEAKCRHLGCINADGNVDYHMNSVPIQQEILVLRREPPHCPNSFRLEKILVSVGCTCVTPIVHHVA

[2] = biological target: T1, recombinant IL-17 (human IL-17, …); assay: sandwich ELISA: AF-317 coated as capture, mAb4538 as detection, IL-17A titrated

binding result [1]: binds
B1: mAb7024 (antibody, human IgG1, lambda, V domains shown)
VH: QVQLVQSGAEVKKPGSSVKVSCKASGGTFSSYAISWVRQAPGQGLEWMGSIIPWFGTTNYAQKFQGRVTITADESTSTAYMELSSLRSEDTAVYYCARDSEYYFDHWGQGTLVTVSS
VL: DIQMTQSPSSVSASVGDRVTITCRASQGISNWLNWYQQKPGKAPKLLIYAASSLQSGVPSRFSGSGSGTDFTLTISSLQPEDFATYYCQQYSDDPTFGQGTKVEIKG
notes: also called LM modulator of IL-17

binding result [2]: binds
B2: mAb4538 (antibody, human IgG1, lambda, V domains shown)
VH: QVQLQQSGPGLVKPSQTLSLTCAISGDSVSSSSAAWGWIRQSPSRGLEWLGRISYRSKWYNDYAVSVKSRITINPDTSKNQFSLQLNSVTPEDTAVYYCAREVDSMYYSYFDIWGQGTLVTVSS
VL: EIVLTQSPATLSLSPGERATLSCRASQNVWAFYLAWYQQKPGQAPRLLIYGASNRATGIPARFSGSGSGTDFTLTISSLEPEDFAVYYCQQYRSTLSLTFGQGTKVEIKG
notes: also called detection agent; anti-IL-17 antibody from Janssen Biotech, Inc

binding result [1]: binds
B3: mAb732 (antibody, human IgG1, lambda, V domains shown)
VH: B2 VH
VL: B2 VL with Q90T, R93Y, T95S, L96P
notes: as for B1
